Assay results taken from paper PMC10939776.

Key:
[1] = target: Copalyl diphosphate synthase from Penicillium fellutanum (PfCPS), full-length wild type (Penicillium fellutanum); assay: SEC
[2] = target: Copalyl diphosphate synthase from Penicillium fellutanum (PfCPS), full-length wild type (Penicillium fellutanum); assay: cryo-EM structure

## Copalyl diphosphate synthase from Penicillium fellutanum (PfCPS), full-length wild type (enzyme)
[1]
  stoichiometry N: 6
[2]
  stoichiometry N: 6
